In PMC12809078:

Target: full-length SUMO-CtBP2 (human) (UniProt P56545)
Assay: SEC; Superose 6 Increase 10/300 GL; 20 mM Tris-HCl pH 8.0, 150 mM NaCl, 2 mM DTT; 0.35 ml/min

## full-length SUMO-CtBP2, P56545 1-445 (natural protein; other documents disagree on this pair)
  stoichiometry N: 4
